Test results taken from the nanobody polyreactivity screen of Harvey et al. (2022).

Assay: yeast display, Sf9 membrane polyspecificity reagent, FACS + sequencing; frameworks hold sequencing errors
In short: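 In a synthetic yeast display library (Saccharomyces cerevisiae BJ5465), nanobody expression was induced with galactose for 36–48 hours. FACS gates were set low and high (top ~1%) using anti-HA fluorescence for expression and streptavidin fluorescence for binding of the Sf9 membrane reagent. Each polyreactivity label is drawn from the gate of origin.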

Sequence	polyreactivity (PSR sort gate)
QVQLVESGGGLVQAGGSLRLSCAASGRIFFYYAMGWYRQAPGKERELVATISYSGGGTYYADSVKGRFTISRDNAKNTVYLQMNSLKPEDTAAYYCNARWGTPYYIQDFDYWGQGTQVTVSS	low polyreactivity
QVQLVESGGGLVQAGGSLRLSCAASGSTFVAYPMGWYRQAPGKERELVATISSGGNTKYADSVKGRFTISRDNAKNTVYLQMNSVKPEDTAVYYCNAGRYRYRYRSYPYDYWGQGTQVTVSS	high polyreactivity
QVQLVESGGGLVQAGGSLRLSCAASGFTLKYYAMGWYRQAPGKERELVAAITQRGGSTYADSVKGRFTISRDNAKNTVYLQMNSLKPEDTAFYFCAASSAKYRLYGGYDYWGQGTQVTVSS	high polyreactivity
QVQLVESGGGLVQAGGSLRLSCAPSGIIFYGNAMGWYRPAPGKERELVAAITRSGVRTYYADSVKGRFTISRDNAKKTGYLQMNSLNPEDSAVSYCAAVKPVSSRHYPYDYWGQGTQVTVSS	high polyreactivity
QVQLVESGGGLVQAEGSLRLSCAASGRTSVLYAMGWNRQAPGKEREFVAAITWNSGSTYYADSVKGRFTISRDNAKNTVYIQMTRLKPEDTAVYYCNADYYFSSYRSTYDYWGQGTQVTVSS	low polyreactivity
QVQLVESGGGLVQAGGSLRLSCAASGSTFATYAMGWYRQAPGKERELVAVITLGGRTYYADSVKGRFTISRDNAKNTVYLQMNSLKPEDTAVYYCAAKAYTYYARIGFDYWGQGTQVTVSS	high polyreactivity
QVQLVESGGGLVQAGGSLRLSCAASGFTFRVNAMGWYRQAPGKERELVAAITYSGGSTYYADSVKGRFTISRDNAKNTVYLQMNSLKPEDTAVYYCNKARWNSWLYGYHYRGLRSYDYWGQGTQVSVSS	high polyreactivity
QFQLVESGGGLVQAGGSLRLSCAASGRIFGRYSRGLYRQAPGKERELVAAITWLGTTYYADSVKGRFTISRDNAKNTVYLQMNSLKPEDTAVYYCATVVLLRIWGGYWGQGTQVTVSS	high polyreactivity
QVQLVESGGGLVQAGGSLRLSCAASGRIFNRYAMGWYRQAPGKEREFVAGITWNGGSTYYADSVKGRFTISRDNAKNTVYLQMNSLKPEDTAVYYCAATHYYYGTSRYDYWGQGTQVTVSS	high polyreactivity
QVQLVESGGGLVQAGGSLRLSCAASGSLFSWYTKGWYRQAPGKERELVAAISRSGGRTYYADSVKGRFTISRDNAKNTVYLQMNSLKPEDTAVYSCAARVYSYYGSRGQRYDYWGQGTQVTVSS	high polyreactivity
QVQLVESGGGLVQAGGSLRLSCAASGSIFRQYAMGWYRQAPGKDRELVAAIRSGGSTYYADSVQGRFTISRDNAKNTVYLQMNSLKPEDTAVYYCARGYSWSVGYPRVQDMDYWGQGTQVTVSS	high polyreactivity
QVQLVESGGGLVQAGGSLRLSCAASGFIIDEYAMGWYRQAPGKERELVAAISWSGSRTYYADSVKGRFTISRDNAKNTVYLQMNSLKPEDTAVYYCAKVTGVGAGRRIYWGQGTQVTVSS	low polyreactivity
QVQLVESGGGLVQAGGRLRLSCAASGRTFKLYAMGWYRQAPRKERELVAAITESGGSTYYADTVKGRFTISRDNAKNTVYLQMNILKPEDTAVDYCARVLQYQKRNDYEYWGQGTQVTVSS	low polyreactivity
QVQLVETGGGLVQAGGSLRLSCAASGFIFRKYAMGWYRQAPGKERELVAAITASGGSTYYADSVKGRFTISRDNAKNTVYLQMNSLKPEDTAVYYCATDYHGAERWLKYVYWGQGTQVTVSS	high polyreactivity
QVQLVESGGGLVQAGGSLRLSCAASGRTFANYAMGWYTQAPGKERELVAAITSGGRTYYAVSVKGRFTISRDNAKNTVYLQMNSLKPEDTAVYYCAATRYRVYAQNYDYWGQGTQVTVSS	high polyreactivity
QVQLVESGGGLVQAGVSLRLSCAASGSIFDVYAMGWYRQAPGKERELVATISYGDSSTYYADSVKGRFTISRDNAKNTVYLQMNSLKPEDTAVYYCAADYLTAPRWRQWGEMDYWGQGTQVTVSS	low polyreactivity
QVQLVESGGGLVQAGGSLRLSCAASGSIFDVYTMGWYRPAPGKERELVAAISWSGGSTFYADSVKGRFTISRDNAKNTVYLQMNSLKPEDTAVYYCAAELSLGNYWYDFWGQGTQVTVSS	high polyreactivity
QVQIVESGGGLVQAGGSLRLSCAASGSIFQFYAMGWSRQAPGKERELVAVITTSGVSTYYADSVKGRFTISRDNAKYTVYLQMNSLKPEDTAVYYCAADDYYLAGDYWGQGTQVTVSS	low polyreactivity
QVQLVESGGGLVQAGGSLRLSCAASGLTLTGYAMGWYRQAPGKERELVAAISQDGGNTYYADSVKGRFTISRDNAKNTVYLQMNSLKREDTAVYYCAAVGRAKYYYWGQGTQVTVSS	low polyreactivity
QVQLVESGGGLVQAGGSLRLSCAASGRTFIYYAMGWYRQAPGKERELVARIRANGVSTYYADSVKGRFTISRDNAKNTVYLQMNSLKPEDTAVYYCAKGYFPSQYEYWGQGTQVTVSS	high polyreactivity
QVQLVESGGGLVQAGGSLRLSCAASGLIFSYKTMGWYRQAPGKERELVAAITSGGRTYYADSVKGRFTISRDNAKNTVYLQMNSLKPEDTAVYYCAVLSKWRYDYWGQGTQVTVSS	high polyreactivity
QVQLVESGGGLVQAGGSLRLSCAASGFTFARYAMGWYRQAPGKEREFVAAIDKSGGSTYYADSVKGRFTISRDNAKNTVYLQMNSLKPEDTAVYYCAAVYSSYGRRYNSWGQGTQVTVSS	high polyreactivity

Sequence	polyreactivity (PSR sort gate)
QVQLVESGGGLVQAGGSLRLSCAASGSTFAFNAMGWYRQAPGKERELVAAISTSGGDTYYADSVKGRFTISRDNAKNTVYLQMNSLKPEDTAVYYCGGDYQVPGGSWMDYWGQGTQVTVSS	high polyreactivity
QVQLVESGGGLVQAGGSLRLSCAASGRTFGYYAMGWYRQAPGKERELVATITFGGGSTYYADSVKGRFTISRDNAKNTVYLQMNSLKPEDTAVYYCAADTSVHSEVDYWGQGTQVTVSS	low polyreactivity
QVQLVESGGGLVQAGGSLRLSCAASGSILGINVMGWYRQAPGKERELVAAISWRVGRTYYADSVKGRFTISRDNAKKTDDLQMNSLKPEDTAVYYCNVDRWGNIPVGDYDYWGQGTEVTVSS	high polyreactivity
QVQLVESVGGLVQAGGSLRLRCAASGRTFGVYAMGWYRQAAGKESEFVATITSRGGRTYSADSVKGRFTISRDNAKKTVYLQMNSLIPEDTAVYYCAAQVGRNGVSEYDYWGQGTQVTVSS	high polyreactivity
QVQLVESGGGLVQAGGSLRLSCAASGRIFKRYDMGWYRQAPGKERELVAAITGTGGSTYYADSVKGRFTISRDNAKNTVYLQMNSLKPEDTAVYYCAARLYNTYSGFAFGYWGQGTQVTVSS	high polyreactivity
QVQLVESGGGLVQAGGSLRLSCAASGRTFLQYAMGWYRQAPRQERDLFATISFSGGSTYYADSVKGRITISRDNAKNTVYLLMNSLKPEDTAVYDCAKSQYRGRVYTGYDYWGQGTQVTVSA	low polyreactivity
QVQLVESGAGLVQAGGSLRLSCAASGSILYINTMGWYRQAPGKERELVAAITSSGGSTYYADSVKGRFTISRDNAKNTVDLQMNSLKPEDTAVYYCAAVGYYGGYNYWGQGTQVTVSS	low polyreactivity
QVQLVESGGGLVQAGGSLRLSCAASGSIFRYNAMGRYRQAPGKERELVAAITSNGGSTYYADSVKGRFTISRDNAKNTVYLQMNCQKPEDTAVYYCNAVYTFTRRYGYWGQGTQVTVSS	high polyreactivity
QVQLVESGGGLVQAGGSLRLSCAASGITFPSYVMGWYRQAPGKERELVAAISWRGGSTYYADSVKGRFTISRDNAKNTVYLQMNSLKPEDTAVYYCAAGSARDDDYWGQGTQVTVSS	high polyreactivity
QVQLVESGGGLVQAGGSLRLSCDASGSIISYYTMGWYRQAPWKERELVAAISLTGGSTYYADSVKGRFTISRDNAKNTVYLQMNSLKPEDTAVYYCIAVRYASPYGYWGQGTLVTVSS	high polyreactivity
QVQLVESGGGLVQAGGSLRLSCAASGITFNLNDMGWYRQAPGKERELVAAITSGGNTSYADSVKGRFTISRDNAKNTVYLQMNSLKPEDTAVYYCAADLHTELYKMDYWGQGTQVTVSS	low polyreactivity
QVQLVESGGGLVQAGGSLRLSCAASGITFVSNGMGWYRTAPGKERELVAAITRSGGSTYYADSVKGRFTISRDNAKNTVYLQMNSLKPEDTAVYYCNARTSRYRRGGDSWGQGTQVTVSS	high polyreactivity
QVQLVESGGGLVQAGGSLRLSCAASGRIFINDMGWYRQAPGKERELVAAIRSDGSTNYADSVKGRFTISRDNAKNTVYLQMNSLKPEDTAVYYCNVDGYFLFVRGYEYWGQGTQVTVSS	low polyreactivity
QVQLVESGGGLVQAGGSLRLSCAASGRTFDVNAMGWYRQAPGKERELVAAITWDGGSTYYADSVKGRFTISRDNAKNTVYLQMNSLKPEDTALYYCAADFIQGAWWYVTYRYTYEYWGQGTQVTVSS	low polyreactivity
QVQLVESGGGLVQAGGSLRLSCAASGRTFTGYAMGWYRQAPGKERELVAAISSRVGSTYYADSVKGRFTISRDNAKNTVYLQMNSLKPEDTAVYYCAKDSQSYTREAYYYWGQGTQVTVSS	low polyreactivity
QDQLVESGGGLVQAVGSLRLSCAASGSIFDVNALGWYRQAPGKERELVAAISQRGTRTYYADSVKGRFTISRDNAKNTVYLQMNSLKPEDTAVYYCNRGGWRQYDSWGQGTQVTVSS	high polyreactivity
QVQLVESGGGLVQAGGSLRLSCAASGRIFDSYAMGWYRQAPGKERELVAVISNNDGTTYYADSVKGRFTISRDNAKTTVYLQMNSLKPEDTAVYYCNAVYSSGVDGSEGFDYWGQGTQVTVSS	low polyreactivity
QVQLVESGGGLVQAGGSLRLSCAASGRIFPPYAMGWYRQAPGKERELVAAISCGGSRTYYADSVKGRFTISRDNAKNTVYLQMNSLKPEDTAVYYCAAKNYLAKSGDYWGQGTQVTVSS	high polyreactivity
QVHLVESGGGLVQAGGSLRLSCAPSGLTFPYNAMGWYRQAPGKESELVAAISRGGGTNYADSVKGRFTISRDNAKNTVYLQMNSLKPEDTAVYYCAAEYATWWGGYDYSGQGTQVTVSS	low polyreactivity
QVQLVESGGGLVQAGGSLRLSCAASGSIFYRYAMGWYRQAPGKERELVAAIRWSGGSTYYADSVKGRFTISRDNAKNTVYLQMNSLKPEDTAVYYCNGTWAYRGHGYWGQGTQVTVSS	low polyreactivity
QVQLVESGGGLVQAGGSLRLSCAASGNIFYLNTMGWYRQAPGKERELVASITRSTGSTYYADSVKGRFTISRDNAKNTVYLQMNSLKPEDTAVYYCAADWSLNKTPRLKGYTFRDDYWGQGTQVTVTS	low polyreactivity
